Measured values from patent publication US20230192903A1 (published 2023).

B1: bispecific antibody CS6 (bispecific antibody, human IgG1, kappa)
light: DIVMTQSPSSLTVTAGEKVTMSCKSSQSLLNSGNQKNYLTWYQQKPGQPPKLLIYWASTRESGVPDRFTGSGSGTDFTLTISSVQAEDLAVYYCQNDYSYPFTFGSGTKLEIKRTVAAPSVFIFPPSDEQLKSGTASVVCLLNNFYPREAKVQWKVDNALQSGNSQESVTEQDSKDSTYSLSSTLTLSKADYEKHKVYACEVTHQGLSSPVTKSFNRGEC
heavy 1: QVQLQQPGAELVRPGASVKLSCKASGYTFTSYWINWVKQRPGQGLEWIGNIYPSDSYTNYNQKFKDKATLTVDKSSSTAYMQLSSPTSEDSAVYYCTRSWRGNSFDYWGQGTTLTVSSASTKGPSVFPLAPSSKSTSGGTAALGCLVKDYFPEPVTVSWNSGALTSGVHTFPAVLQSSGLYSLSSVVTVPSSSLGTQTYICNVNHKPSNTKVDKKVEPKSCDKTHTCPPCPAPPVAGPSVFLFPPKPKDTLMISRTPEVTCVVVDVSHEAPEVQFNWYVDGVEVHNAKTKPREEQFNSTFRVVSVLTVVHQDWLNGKEYKCKVSNKGLPAPIEKTISKTKGQPREPQVYTLPPCRDELTKNQVSLWCLVKGFYPSDIAVEWESNGQPENNYKTTPPVLDSDGSFFLYSKLTVDKSRWQQGNVFSCSVMHEALHNHYTQKSLSLSPGK
heavy 2: QVQLQQPGAELVRPGASVKLSCKASGYTFTSYWINWVKQRPGQGLEWIGNIYPSDSYTNYNQKFKDKATLTVDKSSSTAYMQLSSPTSEDSAVYYCTRSWRGNSFDYWGQGTTLTVSSASTKGPSVFPLAPSSKSTSGGTAALGCLVKDYFPEPVTVSWNSGALTSGVHTFPAVLQSSGLYSLSSVVTVPSSSLGTQTYICNVNHKPSNTKVDKKVEPKSCDKTHTAPAPAPAPAPAPAPAPQVQLVESGGGVVQPGRSLRLSCAASGFTFSTYAMNWVRQAPGKGLEWVGRIRSKYNNYATYYADSVKDRFTISRDDSKNTLYLQMNSLRGEDTAVYYCARHGNFGNSYVSWFAYWGQGTLVTVSSGGGGSGGGGSGGGGSQTVVTQEPSLTVSPGGTVTLTCRSSTGAVTTSNYANWVQQKPGQAPRGLIGGTNKRAPGVPARFSGSLLGGKAALTLSGVQPEDEAEYTCALWYSNLWVFGGGTKVEIKGGGGSDKTHTCPPCPAPPVAGPSVFLFPPKPKDTLMISRTPEVTCVVVDVSHEAPEVQFNWYVDGVEVHNAKTKPREEQFNSTFRVVSVLTVVHQDWLNGKEYKCKVSNKGLPAPIEKTISKTKGQPREPQVCTLPPSRDELTKNQVSLSCAVKGFYPSDIAVEWESNGQPENNYKTTPPVLDSDGSFFLVSKLTVDKSRWQQGNVFSCSVMHEALHNHYTQKSLSLSPGK
notes: CSBODY structure: two 175D10 Fab arms; second heavy chain (first heavy entry) and first heavy chain with anti-CD3 scFv (Di6-2) between CH1 and Fc2
B2: bispecific antibody CS8 (bispecific antibody, human IgG1, kappa)
light: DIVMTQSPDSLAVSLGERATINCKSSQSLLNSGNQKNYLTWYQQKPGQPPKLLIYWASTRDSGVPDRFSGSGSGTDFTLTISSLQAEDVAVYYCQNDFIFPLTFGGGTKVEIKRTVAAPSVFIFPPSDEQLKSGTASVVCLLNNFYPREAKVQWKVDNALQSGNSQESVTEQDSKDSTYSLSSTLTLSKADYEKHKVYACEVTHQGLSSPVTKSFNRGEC
heavy 1: QVQLQESGPGLVKPSETLSLTCTVSGFSLTRYGVSWIRQPPGKGLEWIGVIWGEGNTNYNPSLKSRVTISKDSSKSQVSLKLSSVTAADTAVYYCARVNFGNALDYWGQGTLVTVSSASTKGPSVFPLAPSSKSTSGGTAALGCLVKDYFPEPVTVSWNSGALTSGVHTFPAVLQSSGLYSLSSVVTVPSSSLGTQTYICNVNHKPSNTKVDKKVEPKSCDKTHTCPPCPAPPVAGPSVFLFPPKPKDTLMISRTPEVTCVVVDVSHEAPEVQFNWYVDGVEVHNAKTKPREEQFNSTFRVVSVLTVVHQDWLNGKEYKCKVSNKGLPAPIEKTISKTKGQPREPQVYTLPPCRDELTKNQVSLWCLVKGFYPSDIAVEWESNGQPENNYKTTPPVLDSDGSFFLYSKLTVDKSRWQQGNVFSCSVMHEALHNHYTQKSLSLSPGK
heavy 2: QVQLQESGPGLVKPSETLSLTCTVSGFSLTRYGVSWIRQPPGKGLEWIGVIWGEGNTNYNPSLKSRVTISKDSSKSQVSLKLSSVTAADTAVYYCARVNFGNALDYWGQGTLVTVSSASTKGPSVFPLAPSSKSTSGGTAALGCLVKDYFPEPVTVSWNSGALTSGVHTFPAVLQSSGLYSLSSVVTVPSSSLGTQTYICNVNHKPSNTKVDKKVEPKSCDKTHTAPAPAPAPAPAPAPAPQVQLVESGGGVVQPGRSLRLSCAASGFTFSTYAMNWVRQAPGKGLEWVGRIRSKYNNYATYYADSVKDRFTISRDDSKNTLYLQMNSLRGEDTAVYYCARHGNFGNSYVSWFAYWGQGTLVTVSSGGGGSGGGGSGGGGSQTVVTQEPSLTVSPGGTVTLTCRSSTGAVTTSNYANWVQQKPGQAPRGLIGGTNKRAPGVPARFSGSLLGGKAALTLSGVQPEDEAEYTCALWYSNLWVFGGGTKVEIKGGGGSDKTHTCPPCPAPPVAGPSVFLFPPKPKDTLMISRTPEVTCVVVDVSHEAPEVQFNWYVDGVEVHNAKTKPREEQFNSTFRVVSVLTVVHQDWLNGKEYKCKVSNKGLPAPIEKTISKTKGQPREPQVCTLPPSRDELTKNQVSLSCAVKGFYPSDIAVEWESNGQPENNYKTTPPVLDSDGSFFLVSKLTVDKSRWQQGNVFSCSVMHEALHNHYTQKSLSLSPGK
notes: CSBODY structure: two 2C6.9 Fab arms; second heavy chain (first heavy entry) and first heavy chain with anti-CD3 scFv (Di6-2) between CH1 and Fc2
B3: bispecific antibody CS11 (bispecific antibody, human IgG1, kappa)
light: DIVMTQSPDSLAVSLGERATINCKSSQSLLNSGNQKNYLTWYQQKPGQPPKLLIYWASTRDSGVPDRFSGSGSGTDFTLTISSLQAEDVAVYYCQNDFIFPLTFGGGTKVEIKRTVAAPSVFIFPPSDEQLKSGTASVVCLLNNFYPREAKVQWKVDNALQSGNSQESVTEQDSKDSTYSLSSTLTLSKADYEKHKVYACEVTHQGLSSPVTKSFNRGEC
heavy 1: B2 heavy 1
heavy 2: not shown
notes: CSBODY structure: two 2C6.9 Fab arms; second heavy chain (first heavy entry) and first heavy chain with anti-CD3 scFv (L2K) between CH1 and Fc2

Columns and labels:
[1] = target: Human CLDN18.2 (human); test: cell-based or functional assay
[2] = target: T1, Human CLDN18.2 (human); test: flow cytometry, NUGC4-hCLDN18.2 cells
T1 construct: the cell line is named under assay; also called hCLDN18.2; human CLDN18.2 antigen
Method: NUGC4 and NUGC4-hCLDN18.2 cells were cultured, digested with pancreatin and centrifuged to collect cells. The cells were collected and resuspended in buffer (PBS+1% FBS) at 1×10⁴ cells/well in a 96-well plate at 100 μL per well. Then the mixture was centrifuged at 350×g for 5 min, and the supernatant was removed.

[3] = target: T2, human CD3 antigen (human, UniProt P07766 23-126); test: SPR (Biacore T200), human CD3 antigen on CM5 chip
T2 construct: also called Human CD3ϵ
Method: After the detection was completed, data fitting was carried out on the result pattern by adopting Biacore T200 Evaluation Software in a 1:1 binding fitting mode to obtain an equilibrium dissociation constant (KD).

[4] = target: T3, Human CLDN18.1 (human, UniProt P56856 1-261); test: flow cytometry, 293T-hCLDN18.1 cells
T3 construct: also called hCLDN18.1

[5] = target: T1, Human CLDN18.2; test: flow cytometry, NUGC4 cells (endogenous CLDN18.2)

Binder | EC50 value for killing effect on NUGC4-hCLDN18.2 cells [1] | EC50 [2] | Kd [3] | binding result [4] | EC50 value for killing effect on NUGC4 cells [1] | EC50 [5]
B1 | < 10 pM | < 50 nM | < 15 nM | no binding | – | –
B2 | < 10 pM | < 50 nM | < 15 nM | no binding | < 10 pM | < 100 nM
B3 | < 10 pM | < 50 nM | – | no binding | < 10 pM | < 100 nM
